Our source for the EC50 values is patent publication US20240034807A1.

In general, EC50 refers to the concentration needed to bring the measured effect to its halfway point. High values mean a need for much substance, low ones an effect from little substance.

The experiment concerns the target human mesothelin polypeptide (human) (UniProt Q13421). The experiment is described as follows: ELISA and SPR (Blitz) on a human mesothelin polypeptide. Background: An ELISA detects its analyte on a solid surface through an enzyme-linked reagent.

B1: Clone #10 VH domain (protein)
VH: EVQLVESGGGVVQPGRSLRLSCAASGFTFSSYAMHWVRQAPGKGLEWIGSIRHDGNTYYNPSLKSRVTVSRDNAKNTLYLQMDSLRAEDTAMYYCAKYGCSSISCSFDYWGQGTLVTVSS
Regarding B1, the EC50 is 107 nM.

B2: Clone #8 VH domain (protein)
VH: EVQLVESGGGVVQPGRSLRLSCAASGFTFSSYAMHWVRQAPGKGLEWIGSIRHDGNTYYNPSLKSRVSVSRDNAKNTLYLQMDSLRAEDTAMYYCAKYGCSSISCSFDYWGQGTLVTVSS
Turning to B2, the concentration giving a half-maximal response (EC50) was determined as 6.5 nM.

B3: Clone #7 VH domain (protein)
VH: EVQLVESGGGVVQPGRSLRLSCAASGFTFSSYAMHWVRQAPGKGLEWIGTIRYDGNTYYNPSLKSLVTISRDDSTNTLYLQMNSLRAEDTALYYCAKYGCSSTSCSFDYWGQGTLVTVSS
With B3, the EC50 is 16.4 nM.

B4: Clone #12 VH domain (protein)
VH: EVQLVETGGDLAQPGESLRLSCVASGFTFSSSWMTWIRQAPGKGLEWVSSLSGRSEKTFYADSVKGRFTVSRDNAKNTLYLQMDSLRPEDTATYYCASGWALVWGQGTLVTVSS
Consider B4, for which the EC50 was 1.3 nM.

B5: Clone #2 VH domain (protein)
VH: EVQLVESGGGVVQPGRSLRLSCAASGFTFSSYAMHWVRQAPGKGLEWIGYIYTSGSTNYNPSLKSRVTISRDDSTNTLYLQMNSLRAEDTATYYCARTPRGRDSSGYYQSPHAFDIWGQGTLVTVSS
On to B5, for which the EC50 was 1.6 nM.

B6: Clone #9 VH domain (protein)
VH: EVQLVESGGGVVQPGRSLRLSCAASGFTFSSYAMHWVRQAPGKGLEWVSGISYNGDHTYYADSVKGRSTVSRDNAKNTLYLQMDSLRPEDTAMYYCTRNYFFDYWGQGTLVTVSS
For the molecule B6, the concentration for a half-maximal effect (EC50) turned out to be 944 nM.

B7: Clone #1 VH domain (protein)
VH: EVQLVESGGGVVQPGRSLRLSCAASGFTFSSYAMHWVRQAPGKALEWIGSISYSGSTYYNPSLKSRVTVSRDNAKNTLYLQMDSLRAEDTAMYYCAKYYCSGGTCYYFDYWGQGTLVTVSS
In turn, B7 yielded an EC50 of 1000 nM. This EC50 and that of the molecule before are within 1.5-fold of each other.

B8: Clone #4 VH domain (protein)
VH: EVQLVESGGGVVQPGRSLRLSCAASGFTFSSYAMHWVRQAPGKGLEWVSSISGNSLYKYYADSVKGRFTISRDDSTNTLYLQMNSLRAEDTATYYCTRHWAVGNWGQGTLVTVSS
With B8, the EC50 came out at 1.7 nM.

B9: Clone #3 VH domain (protein)
VH: KVQLQQWGAGLLKPSETLSLTCAVYGGSFSGYYWSWIRQPPGKGLEWIGEINHSGSTNYNPSLKSRVTISVDTSKNQFSLKLSSVTAADTALYYCARTYRPHSYYYYGMDVWGQGTTVTVSS
For B9, the 50% effective concentration (EC50) was 38 nM.

B10: Clone #5 VH domain (protein)
VH: EVQLVESGGGVVQPGRSLRLSCAASGLTFSSYAMHWVRQAPGKGLEWIGTIRYDGNTYYNPSLKSLVTISRDDSTNTLYLQMNSLRAEDTATYYCARRRYYDSSGYRGAAFDIWGQGTLVTVSS
As for B10, the EC50 was 298 nM.

B11: Clone #11 VH domain (protein)
VH: EVQLVESGGGVVQPGRSLRLSCAASGFTFSSYAMHWVRQAPGKGLEWVSGITRSGGATFYAGSVKGRFTISRDDSTNTLYLQMNSLRAEDTAVYYCSRDPRRVDYWGQGTLVTVSS
Take B11: the EC50 was determined as 98 nM.

B12: Clone #6 VH domain (protein)
VH: QVQLQQWGAGLLKPSETLSLTCAVYGGSFSGYYWSWIRQPPGKGLEWIGEINHSGSTNYNPSLKSRVTISVDTSKNQFSLKLSSVTAADTATYYCARSYRTVTYYKAYFQHWGQGTLVTVSS
On to B12, for which the concentration for a half-maximal effect (EC50) was found to be 1000 nM.
